Experimental findings from publication PMC5458272 (2017) are described below.

For this test, the target named is GST. Briefly: SPR. A general note: Surface plasmon resonance follows binding to a sensor surface in real time, without labels.

B1: Recombinant His-tagged Aurora-A (enzyme)
chain: MDRSKENCISGPVKATAPVGGPKRVLVTQQFPCQNPLPVNSGQAQRVLCPSNSSQRIPLQAQKLVSSHKPVQNQKQKQLQATSVPHPVSRPLNNTQKSKQPLPSAPENNPEEELASKQKNEESKKRQWALEDFEIGRPLGKGKFGNVYLAREKQSKFILALKVLFKAQLEKAGVEHQLRREVEIQSHLRHPNILRLYGYFHDATRVYLILEYAPLGTVYRELQKLSKFDEQRTATYITELANALSYCHSKRVIHRDIKPENLLLGSAGELKIADFGWSVHAPSSRRTTLCGTLDYLPPEMIEGRMHDEKVDLWSLGVLCYEFLVGKPPFEANTYQETYKRISRVEFTFPDFVTEGARDLISRLLKHNPSQRPMLREVLEHPWITANSSKPSNCQNKESASKQS
Regarding B1, the Kd (in general, the equilibrium constant for the complex coming apart) was above 5 µM.
